The source of these data is the nanobody polyreactivity screen of Harvey et al. (2022).

The data set is described as follows: yeast display, Sf9 membrane polyspecificity reagent, FACS + sequencing; frameworks hold sequencing errors. Summed up: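 Using colony PCR, genes from sorted yeast display clones were amplified, then sequenced on MiSeq at 2 × 250 and filtered by CDR length. The clones had been stained with 10% biotinylated, detergent-solubilized Sf9 membrane reagent for 1 hour at 4 °C and sorted by FACS into low and high (top ~1%) gates on anti-HA and streptavidin fluorescence. Polyreactivity labels come from the gate of origin.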
For “QVQLVESGGGLVQAGGSLRLSCAASGRTFRSYAMGWYRQAPGKERELVAAISSGTSTDYADSVKGRFTISRDNAKNTVYLQMNSLKPEDTAVYYCAYDYWGQGTQVTVSS”, the “polyreactivity (PSR sort gate)” value was “low polyreactivity”.
“QVQLVESGGGLVQAGGSLRLSCAASGRTFRSYAMGWYRQAPGKERELVAVISGGGTYYADSVKGRFTISRDNAKNTVYLQMNSLKPEDTAVYYCAAQFHFRPFSWTYDYWGQGTQVTVSS”: the “polyreactivity (PSR sort gate)” value is given as “high polyreactivity”.
For “QVQLVESGGGLVQAGGSLRLSCAASGRTFRSYDMGWYRQAPGKERELVAAISEDGGYTYYADSVKGRFTISRDNAKITVYLQMNSLKPEDTAVYYCAKDRPGPLRWWFLYGYWGQGTQGTVSS”, the “polyreactivity (PSR sort gate)” value was “low polyreactivity”.
Turning to “QVQLVESGGGLVQAGGSLRLSCAASGRTFRSYTMGWYRQAPGKERELVARISSSGGRTYYADSVKGRFTISRDNAKNTVYLQMNSLKPEDTAVYYCAAAIVSYGRNDYWGQGTQVTVSS”, the “polyreactivity (PSR sort gate)” value is recorded as “high polyreactivity”.
On to “QVQLVESGGGLVQAGGSLRLSCAASGRTFRTYDMGWYRQEPGKERELVAAITSRAGSTYYADSVKGRFTISRDNAKNTVFLQMNRLKPEDTAVYYCAKQYYYGWYWGEDYWGQGSQVTVSS”, for which the “polyreactivity (PSR sort gate)” value is reported as “low polyreactivity”.
As to “QVQLVESGGGLVQAGGSLRLSCAASGRTFRVYAMGGYRQAPGTERELVASISRRGAATYYADSVKGRFTISRDNAKNTVYRQMNSLKPEDTAVSDCAADRPYYSVSPNTEFEYWGQGTQVTVSS”, the “polyreactivity (PSR sort gate)” value is on record as “high polyreactivity”.
As for “QVQLVESGGGLVQAGGSLRLSCAASGRTFRVYAMGWYRQAPGKERELVAAITRGGSTYYADSVKGRFTISRDNAKNTVYLQMNSLKPEDTAVYYCATYSHALRYDYWGQGTQVTVSS”, the entry is “high polyreactivity”; as for “QVQLVESGGGLVQAGGSLRLSCAASGRTFRVYTMGWYRPAPGKERELVAVISGRGGSTSYADSVKGRFTISRDNAKNSVYVQINSLKPEDTAVYYCAALYTQSNSASMYYWGQGTQVTVSS”, “high polyreactivity”.
As for “QVQLVESGGGLVQAGGSLRLSCAASGRTFRWNAMGLYRQAPGKERELVADITSGGSTYYADSVKGRFTISSDNAKNTVYLQMNSLKPEDTAVYYCKAYYYYQFPAPASKYDYWGQGTQVTVSS”, the entry is “high polyreactivity”; as for “QVQLVESGGGLVQAGGSLRLSCAASGRTFRWNAMGWYRQAPGKERELVAAITKSGGSTYYADSVKGRFTISRDNAKNTVYLQMNSLIPEDTAVYYCNAEPPLYPWAYPSDSYNFWGQGTQVTVSS”, “low polyreactivity”; as for “QVQLVESGGGLVQAGGSLRLSCAASGRTFRWYAMGWSRPAPGKERELVASISRGGSKSYADSVKGRFTISRDNAKNTVYLQMNSLKPEDTAVYYCNAKYRLEMDLGQGTQVTVSS”, “high polyreactivity”.
The value for “QVQLVESGGGLVQAGGSLRLSCAASGRTFRWYAMGWYRQAPGKERELVAAIRRSGGGTYYADSVKGRFTISRDNAKNTVYLQMNSLKPEDTAVYYCNTDYPVYQRGVISDGFDYWGQGTQVTVSS” was “low polyreactivity”; that for “QVQLVESGGGLVQAGGSLRLSCAASGRTFRWYPMGWYRQAPGKERELVAAINPGGSTNYADSVKGRFTISRDNANNTVDLQMNSLKPEDSAVYYCNAAGYDALTQNYYWGQGTQVTVSS” was “low polyreactivity”.
In the case of “QVQLVESGGGLVQAGGSLRLSCAASGRTFRYAMGWYRQAPGKERELVAAITGSGGSTYYADSVKGRFTISRDNAKNTVYLQMNSLKPEDTAVYYCAAARYDYWGQGTQVTVSS”, the “polyreactivity (PSR sort gate)” value was “high polyreactivity”.
Consider “QVQLVESGGGLVQAGGSLRLSCAASGRTFRYKAMGWYRQAPGKERELVAAITWNGGRTYYADSVKGRFTISRDNAKNTVYLQMNSLKPEDTAVYYCAAQGTRVDRYPKYDYWGQGTQVTVSS”, for which the “polyreactivity (PSR sort gate)” value is given as “high polyreactivity”.
Take “QVQLVESGGGLVQAGGSLRLSCAASGRTFRYNALGWYRQAPGKETELVAAISGRGSSTYYADSVKGRFTISRDNAKNTVYLQMNSLKPEDTAVYYCAALPASVRRPGWHDYWGQGTEVTVSS”: the “polyreactivity (PSR sort gate)” value was “high polyreactivity”.
On to “QVQLVESGGGLVQAGGSLRLSCAASGRTFRYNAMGWYRQAPGKERELVAAITWSGGSTYYADSVKGRFTISRDNAKNTVYLQMNSLKPEDTAVYYCNKVTWHQGHDYWGQGTQVTVSS”, for which the “polyreactivity (PSR sort gate)” value is on record as “low polyreactivity”.
The value for “QVQLVESGGGLVQAGGSLRLSCAASGRTFRYNAMGWYRQAPGKERELVASITSGGSTNYADSVKGRFTISRDNAKNTVYLQMNSLIPEDTAVYYCAADERRPYWQHSIGSGRPFDYWGQGTQVTVSS” was “low polyreactivity”; that for “QVQLVESGGGLVQAGGSLRLSCAASGRTFRYNAMGWYRQAPGKERELVATISSSGGSTSYADSVKGRFTISRDNAKNTVYLQMNSLKPEDTAVYYCAADEWGVRSEYDYWGQGTQVTVSS” was “low polyreactivity”; that for “QVQLVESGGGLVQAGGSLRLSCAASGRTFRYNTMGWYRQAPGKERELVAAITWSGGRTYYADSVKGRFTISRDNAKNTVYLQMNSLKPEDTAVYYCNADVPYSRSIYGFYYWGQGTQVTVSS” was “high polyreactivity”.
For “QVQLVESGGGLVQAGGSLRLSCAASGRTFRYNVMGWYRQAPGKERELVASISRISGSTYYADSVKGRFTISRDNAKNTVYLQMNSLKPEDTADYYARAAGEYDYWGQGTQVTVSS”, the “polyreactivity (PSR sort gate)” value was “high polyreactivity”.
“QVQLVESGGGLVQAGGSLRLSCAASGRTFRYYAMGWYRQAPGKERELVAAISQTGARTYYADSVKGRFTISRDNAKNTVYLQMNSLKPEDTAVYYCNAYSRSGHQSDGYDYWGQGTQVTVSS”: the “polyreactivity (PSR sort gate)” value is “high polyreactivity”.
“QVQLVESGGGLVQAGGSLRLSCAASGRTFRYYAMGWYRQAPGKERELVAAISSGGNTYYADSVKGRFTISRDNAKNTVYLQMNSLKPEDTAVYYCAAKVHYSAHRFGYWGQGTQVTVSS”: the “polyreactivity (PSR sort gate)” value is given as “high polyreactivity”.
For “QVQLVESGGGLVQAGGSLRLSCAASGRTFRYYAMGWYRQAPGKERELVAAISSGGSTNYADSVKGRFTISRDNAKITVYLQMNSLKPEDTAVYYCAALWSGNKFNYWGQGTQVTVSS”, the “polyreactivity (PSR sort gate)” value was “low polyreactivity”.
As to “QVQLVESGGGLVQAGGSLRLSCAASGRTFRYYAMGWYRQAPGKERELVAAISSSGDRTYYADSVKGRFTISRDNAKKTVYLQMNSLKPEDTAVYYCAADRGARGDYWGQGTQVTVSS”, the “polyreactivity (PSR sort gate)” value is listed as “high polyreactivity”.
As to “QVQLVESGGGLVQAGGSLRLSCAASGRTFRYYAMGWYRQAPGKERELVAAITSGGSTYYADSVKGRFTISRDNAKNTVYLQMNSLKPEDTAVYYCAAVPAGLWATYPQFRYGYWGQGTQVTVSS”, the “polyreactivity (PSR sort gate)” value is reported as “high polyreactivity”.
Take “QVQLVESGGGLVQAGGSLRLSCAASGRTFRYYAMGWYRQAPGKERELVADISWSGGRTTYADSVKGRFTISRDNAKNTVYLQMNSLKPEDTAVYYCAKVLYYPSNDYWGQGSQVTVSS”: the “polyreactivity (PSR sort gate)” value was “high polyreactivity”.
As for “QVQLVESGGGLVQAGGSLRLSCAASGRTFRYYAMGWYRQAPGKERELVATISSGGSTNYADSVKGRFTISRDNAKNTVYLQMNSLKPEDTAVYYCNARRSTDPARYYWGQGTQVTVSS”, the entry is “high polyreactivity”; as for “QVQLVESGGGLVQAGGSLRLSCAASGRTFRYYTMGWYRPAPGKEREFVAAISSTGGTYYADSVKGRFTISRDNAKNTVYLQMNSLKPEDTAVYYCAATFIQVVVNVQLYDYDYWGQGTQVTVSS”, “low polyreactivity”; as for “QVQLVESGGGLVQAGGSLRLSCAASGRTFRYYTMGWYRQAPGKEREFVAAISSTGGTYYADSVKGRFTISRDNAKNTVYLQMNSQKPEDTAVYYCAATVIQVVVNVQLYDYDYWGQGTEVTVSS”, “low polyreactivity”.
For “QVQLVESGGGLVQAGGSLRLSCAASGRTFRYYTMGWYRQAPGKERELVASISWSGGSTYYADSVKGRFTISRDNAKNTVYLQMNSLKPEDTAVYYCNAVYGYRGVTNMDYWGQGTQVTVSS”, the “polyreactivity (PSR sort gate)” value was “high polyreactivity”.
On to “QVQLVESGGGLVQAGGSLRLSCAASGRTFRYYVMGWYIQAPAKERELVARISYSAGSTYYADSVKGRFTISRDNAKKTVYFQMNSLKPEDTAVDYCNAGGNFKDYGHYYWGQCTQVTVSS”, for which the “polyreactivity (PSR sort gate)” value was “high polyreactivity”.
With “QVQLVESGGGLVQAGGSLRLSCAASGRTFRYYVMGWYRPATGTERELVAGISGSGGNTYYADSVKGRFTISRDNAKNTVYLQMNSLKPEDTAVYYCNAYSPYAEYDYWGQGTQVTVSS”, the “polyreactivity (PSR sort gate)” value is on record as “high polyreactivity”.
For the sequence “QVQLVESGGGLVQAGGSLRLSCAASGRTFRYYVMGWYRQAPGKERELVASITWRGTSTYYADSVKGRFTISRDNAKNTVYLQMNSLKPEDTAVYYCNAQGVYFRWSGYDYWGQGTQVTVSS”, the “polyreactivity (PSR sort gate)” value is listed as “high polyreactivity”.
Turning to “QVQLVESGGGLVQAGGSLRLSCAASGRTFRYYVMGWYRQAPGKERELVATITSNGDSTYYADSVKGRFTISRDNAKNTVYLQMNSLKPEDTAVYYCAVRWRDYRGSYRGFEYWGQGTQVTVSS”, the “polyreactivity (PSR sort gate)” value is given as “high polyreactivity”.
On to “QVQLVESGGGLVQAGGSLRLSCAASGRTFSAYAMGWYRQAPGKERELVAAISRRGGSTYYADSVKGRFTISRDNAKNTVYLQMNSLKPEDTAVYYCAAKIYYRSRAEMDWGQGTQVTVSS”, for which the “polyreactivity (PSR sort gate)” value is given as “high polyreactivity”.
As to “QVQLVESGGGLVQAGGSLRLSCAASGRTFSDNAMGWYRQAPGKERELVAASSRSGGRTYYADSVKGRFTISRDNAKNTVYLQMNSLKPEDTAVYYCAAAPSVSGTRLYEYWGQGTQVTVSS”, the “polyreactivity (PSR sort gate)” value is reported as “high polyreactivity”.
In the case of “QVQLVESGGGLVQAGGSLRLSCAASGRTFSDYAMGWYRQAPAKERELVAAISKSGGRTYYADSVKGRFTISRDNAKNTVYLQMNSLKPEDTAVYYCAADPLTELAFYSWGQGTQVTVSS”, the “polyreactivity (PSR sort gate)” value is reported as “high polyreactivity”.
Consider “QVQLVESGGGLVQAGGSLRLSCAASGRTFSGNAMGWYRQAPGKERELVASISTSTDGTYYADSVKGRFTISRDNAKNTVYLQMNSLKAEDTAVYYCTTTTYHWYYYRWEIFDYRGQGTQVTVSS”, for which the “polyreactivity (PSR sort gate)” value is “low polyreactivity”.
On to “QVQLVESGGGLVQAGGSLRLSCAASGRTFSGNTMGWYRQAPGKERELVAVINSGTRTYYADSVKGRFTISRDNAKNTVYLHMNSLKPEDTAVYYCATRSKSPSTKYGYWGQGTQVTVSS”, for which the “polyreactivity (PSR sort gate)” value is reported as “high polyreactivity”.
Regarding “QVQLVESGGGLVQAGGSLRLSCAASGRTFSGYAMGWYRQAPGKERELVAAIRWSGGSTYYADSVKGRFTISRDNAKNTVYLQMNSLKPEDTAVYYCATRDYYYRYGYWGQGTQVTVSS”, the “polyreactivity (PSR sort gate)” value is “high polyreactivity”.
